Laboratory results from the DeepSol protein solubility set.

Assay: soluble on expression in E. coli; label from the status in PepcDB or PDB records

Sequence | soluble on expression in E. coli
MLLLSGFRYFRAVGVALLFLSVSLATVRADVRPETWQVVVDAGSSKTRGILYRLSADAVTPVVEYNSKLPLARYAGVPDESGNLLIAPLLDTLERLANDQKYALEKKTVLVNVLGTAGMRELSAGQQGVIYEAVKKSILAKGWALGQVGTIDGRDEGIFAWVHLNFLKGLATSDNTLGIIEMGGASSQITFALRSPPMDKADVSQNARTVMWDGKTYSVISESLLGLGADAARTAMNKVRPQDQRCYPQGALIMKVPTTGAFDFTACDLVYDEAIAANYQSEIKKLDAIVASSNYTQTDFVGLSSLYYTLNFFNNDLPERGTLKSALEQSCQRYADIEERLRQDDSKDKYQPENKCANGVFVYDLLYDYLQLGDGRLTALKKVENMDIRWTDGFLLLGKQAPLEHHHHHH | not soluble
MLLSLYIPPGRPLSDVMTLLRQEYSITDNIKLKRTRQAVKRALSAAMDRLQMLTSTPPNGLVLFCGEDMSTGKFECFMFSPPEPIRVFYYRTDKRFITDFLEDMVEDNNAIGIIIVERDQATIGLLKGARLEVLKELEGFVPGKHKMGGQSQRRYERIIEQMVDEFFKKVGEEASNLLVPLAEKGVLKGVIVAGPGLAKQEFVEGNYLDYRLKKILAPELVDVAYQGLQGLKEAVMKAEKVVEAQMYRDAVNAMEEFKLHLAKGTGMIVYGEKDVEAALEMGAVKTLLIHESREDLEEWVEKAKSSGAQVIVVPESLAEAEWFLKTFGGLAGILRFRISTV | soluble
MLLTLNALPFVLVNCGGKKKPAPPPKAAAKPMAAPAGGAGGAGGAGGAGKSDSFDSKKQDIPSSKKEEPVAPKKEDEGNYEELAIPQ | not soluble
MLLTNHAKERIAKRLAKKRKIYKIYSTLFSFLKNSIRIEVEDTILFTDGNKTLVATKLDGELLDLGDIVKRVKDIEESYECVFWDKKIAKITKPIKFLQEIPPGKYYFYINKEKKVLYIGTHEPLLALTFRPAKRWERALFYFSLEHHHHHH | not soluble
MLMPKRTKYRKQMKGRNRGKAHRGNSIAFGDIAIKAIEHGRIDSRQIESARVAMTRHIKRAGKVWIRVFPDKPLTAKPLETRMGKGKGSVEKWVMNIKPGRIVYEMLGIEEGLAREALALAQSKLPFKTKIVTCESENEIYLEHHHHHH | soluble
MLNDVYNKRIIELAGNIPRIGRLERPDASATAHSKLCGSTVTIDLKMDGDTVTDFAHIVKACALGQASSSIMASHVVGSTASELKALRETVRKMLKENGAPPDGKWADIAMLEPVRDYKARHASTLLTFDAVVDAIGQIEAQNDGAKATA | not soluble
MLNEGAKNTEKQKVMEIITVAEPMSESELESIRNFLFRIIRREFGFGYIPEYHRDIINLEEYYLKPPRNIFLFASQGGRVIGTLGLRAYDREFEGLNYDPETTASLWRVFVDEDHRRMGVASRLVEIAEKEAASLGYQRIYLHTHKYVGGALEFWLSRGYRVTVDTGNELGTVHMEKTLSCNSNAITRIPEKTSELSHSLPRTQKV | soluble
MLNGKNKSAVNRQRFLKRHKEQIKESVADAVNRRSITNTETGEDVSIPHKDINEPIFHQGKGGVRERVHPGNDQFITGDKIERPKGGGQGSGSGEGNASPDGEGQDEFVFQISKDEYLDILFEDLELPNLEKNQIAKITEWKTHRAGFQTAGIPSNISVIRSLQQSLARRTAMTAGKKRLLKELEDELTRIKNIEPAQQLEENRLKKEIEELRKKIENVPFIDTFDLRFKNYEKRPVPSSQAVMFCLMDVSGSMDQATKDIAKRFYVLLYLFLTRTYENVDVVFIRHHTQAKEVDEHEFFYSQETGGTIVSSALKLMDEIVKERYPVGQWNIYAAQASDGDNWADDSPRCRDLLVNKLLPNCQYYSYIEITRRSHQTLWHEYEKLTDEFPNFAMKNIRSVEDIFPVFRELFQKETALEHHHHHH | not soluble
MLNKVFIIGRLTGDPVITYLPSGTPVVEFTLAYNRRYKNQNGEFQEESHFFDVKAYGKMAEDWATRFSKGYLVLVEGRLSQEKWEKEGKKFSKVRIIAENVRLINRPKGAELQAEEEEEVPPIEEEIEKLGKEEEKPFTDEEDEIPF | soluble
MLNLCDEDFDAMELVEGALALNKAINPETQLEWAHIELARLLKEAELALVHERDEKARFEAFLRLFYQEWGFSGDREAYFDSRNAFIDQVLQRRKGIPVSLGSLLLYLGHKLGFPLNGISFPTQFLLSLNWSGERPIYLNPFNGEIVSQHTLQAWLVGHKGPLAKLKPQHLQSVDNPTIIGRWLALLKSALLREERYTLALRCTDLALTFVPDDPYEIRDRGFIYQQLQCHQIAISDYQYFIEHCPNDPAAELLKTQVNALSHDSQVTLHLEHHHHHH | soluble
MLNLSSNQAAAVTVSETAELPEALEQLGLSNSRPVLVIVGGASQTSEADFLRIQSLFVEVLAPIAQSLGAYVVDGGTDAGVMRLMGDARSQINGQFPLIGVAPTAKVILPNQTTILADDATPLEPHHSHFVLIPGSKWGDESPWIVKVATLLANGLPSITVLINGGEISFLEHHHHHH | soluble
MLNPNKWLDVKKMLPRLAQKQWYAKTRYGYARGGETVHFVQNVRRYYDILTWVTQPLEHHHHHH | not soluble
MLNYELELWEKGLLVAGVDEAGRGPLAGPVVAAAVILPPFTEPFIKGDSKKLTKKEREEAYEEIKNKALAVGTAVVDSAVIDRVNILRATKLAMKRALKDLKYHYDIVITDYVKLEGENCMPLVKGDEKSLNCACASIIAKVIRDKIMEIYHKIYPDFNFASNKGYPSKTHLEKVEKGEYTEIHRKSFSPLKKKLF | soluble
MLPAVDDRCSGGYAGDVVADETIIDLAGPSEGLGVRPDKQRAAAYAGAYYIRDKTHQLGTGEKMREVTKRGFGIGVTAVSRVGSADDLYSVSPVITAISIDKPSPGSTVALGRALQMHQANGFAASVKTKANARLPYLCVDMGYSVRPDFTTVVHDHGFAPVMRYPVSRQTVWASEKPEFGSQSPGPVQINSAFYCPAALPLARQRRLVRRLNELLDEQDGFEAHDQALQKLLPLLMGTNSRPLKFVSKRKRSPETIPTYQIDLVCPAVQGRVKCPLKPESLIIAFDQPEVKPTWSADRYRCCSKSQIRHTYSSEQWKLAQWGMVPGSWEHAIYYEAARSLTEQRFSIMKSQHLSGREHLKWSPRREPMISVIIALWIAATNLAIQDSHVAKMPRPSSIKKQKRRLERDLGRALMSTPPRT | not soluble
MLPCLNEEESLPAVLAAIPAGYRALVVDNNSTDDTATVAARHGAQVVVEPRPGYGSAVHAGVLAATTPIVAVIDADGSMDAGDLPKLVAELDKGADLVTGRRRPVAGLHWPWVARVGTVVMSWRLRTRHRLPVHDIAPMRVARREALLDLGVVDRRSGYPLELLVRAAAAGWRVVELDVSYGPRTGGKSKVSGSLRGSIIAILDFWKVISLEHHHHHH | not soluble
MLPDVQLLKPEVPIGLSRVGATGIKKLVEVQREGKRPIILISTFDVFVDLPAHLKGVNLSRNFEVIDEVLETLTAKPIENIEDLVVEIADHLLKRHEYATKAEARMNSELIMRKRTPKTGQRTQEVVKIFGEATLGRDGSKVIMVGVEVTGITACPCAQELVKASSAERLAKMGFDEETIQKILDAIPVATHNQRGRATLKVQVTDSFKVPIAKLIDVAKSSMSYETYEILKREDELAVVEAAHRNTRFVEDGVRYMAMELLKTFPNAPDDILVFLRQENEESIHQHNVVAERFATFGELRNEIGSPDASGSSAD | soluble
MLPETDLRRVAAAAAAMHRVAEIRRTRVSGRMDNHERRVGTEWVVTLQGADFPVTIAADHDGSTVSFDDGSSMRVTSDWTPLEHHHHHH | not soluble
MLPEYGPLAPSEEELHLFGDVDRLKVLEIGCGSGHSLKYLDEKQAGELWGIDLSTKQIEAAQTVLKDSKAPVTLFESPMEVNPGLPTDYFDIVFSIYALGWTTNLTKTLENVYRYLKPGGSFIFSWEHPMYNRVRQHQHGLTVDKSYHEEGAYAHEAWSSPAIMQQYRLSTYLNHLIDHGFKVERVIEDVCLADAQKHTNGWYGYEKAQMIPTTLIIKCLKQLEHHHHHH | soluble
MLPKPGTYYLPWEVSAGQVPDGSTLRTFGRLCLYDMIQSRVTLMAQHGSDQHQVLVCTKLVEPFHAQVGSLYIVLGELQHQQDRGSVVKARVLTCV | not soluble
